In article PMC3326523, “Histone Recognition and Large-Scale Structural Analysis of the Human Bromodomain Family” (Cell, 2012):
pKd: −log10 of the molar value.

Legend:
[1] = molecular target: KIAA1240 bromodomain (human) (UniProt Q9ULI0); experiment: ITC; peptide (mM stock) titrated into bromodomain (about 50 μM), by the concentrations in the tables; 10 or 15°C, 50 mM HEPES pH 7.5, 150 mM NaCl; single binding site model
[2] = molecular target: BRD3(1), first bromodomain of BRD3 (human) (UniProt Q15059); experiment: as above
BRD3(1), first bromodomain of BRD3 (human), sequence (Q15059 whole entry): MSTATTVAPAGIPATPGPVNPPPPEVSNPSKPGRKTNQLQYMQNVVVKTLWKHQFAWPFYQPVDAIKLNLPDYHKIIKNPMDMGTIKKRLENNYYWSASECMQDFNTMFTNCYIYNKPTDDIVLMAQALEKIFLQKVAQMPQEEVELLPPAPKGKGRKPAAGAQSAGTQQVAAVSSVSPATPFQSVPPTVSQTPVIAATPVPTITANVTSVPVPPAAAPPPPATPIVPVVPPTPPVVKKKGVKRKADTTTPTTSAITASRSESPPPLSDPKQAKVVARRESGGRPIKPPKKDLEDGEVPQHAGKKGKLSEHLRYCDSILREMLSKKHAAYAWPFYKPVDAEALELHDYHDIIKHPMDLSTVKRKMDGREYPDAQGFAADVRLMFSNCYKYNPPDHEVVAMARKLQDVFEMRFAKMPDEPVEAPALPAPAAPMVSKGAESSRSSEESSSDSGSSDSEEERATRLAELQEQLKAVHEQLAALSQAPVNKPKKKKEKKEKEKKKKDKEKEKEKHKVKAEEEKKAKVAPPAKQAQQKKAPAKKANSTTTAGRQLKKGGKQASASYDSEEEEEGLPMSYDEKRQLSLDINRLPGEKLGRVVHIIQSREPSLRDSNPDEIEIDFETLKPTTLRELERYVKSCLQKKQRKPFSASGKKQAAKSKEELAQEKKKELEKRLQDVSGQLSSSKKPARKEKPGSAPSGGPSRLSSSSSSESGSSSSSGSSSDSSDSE

[3] = molecular target: TAF1(1/2), tandem bromodomains of TAF1 (human) (UniProt P21675); experiment: as above
TAF1(1/2), tandem bromodomains of TAF1 (human), sequence (P21675 whole entry): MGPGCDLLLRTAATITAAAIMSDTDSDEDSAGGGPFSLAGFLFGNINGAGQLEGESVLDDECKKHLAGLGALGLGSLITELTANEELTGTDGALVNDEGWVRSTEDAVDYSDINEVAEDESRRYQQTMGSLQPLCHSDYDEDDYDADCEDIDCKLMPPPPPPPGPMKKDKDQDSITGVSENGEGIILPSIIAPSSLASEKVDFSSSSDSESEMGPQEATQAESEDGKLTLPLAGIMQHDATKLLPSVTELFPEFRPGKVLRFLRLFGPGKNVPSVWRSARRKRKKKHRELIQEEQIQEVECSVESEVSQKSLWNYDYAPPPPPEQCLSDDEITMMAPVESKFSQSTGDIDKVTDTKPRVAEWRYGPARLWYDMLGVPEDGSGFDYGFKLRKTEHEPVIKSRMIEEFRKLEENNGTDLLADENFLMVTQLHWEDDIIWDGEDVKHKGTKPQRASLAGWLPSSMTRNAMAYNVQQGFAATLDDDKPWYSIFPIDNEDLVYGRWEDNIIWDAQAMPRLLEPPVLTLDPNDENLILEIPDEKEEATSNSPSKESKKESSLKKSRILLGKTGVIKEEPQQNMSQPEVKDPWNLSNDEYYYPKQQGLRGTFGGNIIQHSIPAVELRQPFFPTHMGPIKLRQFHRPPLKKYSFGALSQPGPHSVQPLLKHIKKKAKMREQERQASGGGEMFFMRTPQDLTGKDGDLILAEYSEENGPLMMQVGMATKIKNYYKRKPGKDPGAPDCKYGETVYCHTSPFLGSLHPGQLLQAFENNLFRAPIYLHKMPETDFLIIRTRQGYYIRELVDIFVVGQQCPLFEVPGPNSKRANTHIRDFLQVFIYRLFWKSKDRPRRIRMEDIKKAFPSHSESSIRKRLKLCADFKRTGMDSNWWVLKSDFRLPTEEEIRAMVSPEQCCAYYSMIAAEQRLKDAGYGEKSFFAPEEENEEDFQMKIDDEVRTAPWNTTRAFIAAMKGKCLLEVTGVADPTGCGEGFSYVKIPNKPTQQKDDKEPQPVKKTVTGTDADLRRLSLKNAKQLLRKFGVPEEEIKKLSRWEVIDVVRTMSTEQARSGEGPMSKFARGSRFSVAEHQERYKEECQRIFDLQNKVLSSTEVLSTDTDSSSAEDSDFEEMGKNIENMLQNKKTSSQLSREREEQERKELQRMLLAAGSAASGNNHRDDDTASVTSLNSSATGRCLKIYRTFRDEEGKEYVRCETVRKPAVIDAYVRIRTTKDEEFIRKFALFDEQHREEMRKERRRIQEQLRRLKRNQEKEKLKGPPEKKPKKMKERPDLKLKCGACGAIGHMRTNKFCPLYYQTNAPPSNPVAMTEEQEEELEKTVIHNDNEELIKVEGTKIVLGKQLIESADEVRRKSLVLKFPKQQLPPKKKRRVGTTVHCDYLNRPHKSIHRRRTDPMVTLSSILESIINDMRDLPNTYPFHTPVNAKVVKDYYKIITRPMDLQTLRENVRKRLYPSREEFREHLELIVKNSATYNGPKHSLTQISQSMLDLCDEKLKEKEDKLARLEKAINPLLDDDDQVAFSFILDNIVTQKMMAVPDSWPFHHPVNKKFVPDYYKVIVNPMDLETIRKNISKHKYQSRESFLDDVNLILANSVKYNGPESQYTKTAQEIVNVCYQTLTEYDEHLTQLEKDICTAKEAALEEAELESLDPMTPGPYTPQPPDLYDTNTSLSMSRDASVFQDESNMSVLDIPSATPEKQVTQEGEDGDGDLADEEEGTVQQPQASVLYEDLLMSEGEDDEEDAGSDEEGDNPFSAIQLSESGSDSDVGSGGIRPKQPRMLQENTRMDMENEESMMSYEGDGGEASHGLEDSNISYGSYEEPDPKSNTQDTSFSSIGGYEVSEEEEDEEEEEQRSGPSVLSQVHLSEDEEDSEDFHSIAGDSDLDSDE

[4] = molecular target: CECR2 bromodomain (human) (UniProt Q9BXF3); experiment: as above
CECR2 bromodomain (human), sequence (Q9BXF3 424-538): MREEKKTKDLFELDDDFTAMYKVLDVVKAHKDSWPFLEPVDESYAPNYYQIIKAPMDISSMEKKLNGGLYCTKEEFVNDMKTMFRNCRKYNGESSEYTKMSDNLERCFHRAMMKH

[5] = molecular target: CREBBP bromodomain (human) (UniProt Q92793); experiment: as above
CREBBP bromodomain (human), sequence (Q92793 1081-1197): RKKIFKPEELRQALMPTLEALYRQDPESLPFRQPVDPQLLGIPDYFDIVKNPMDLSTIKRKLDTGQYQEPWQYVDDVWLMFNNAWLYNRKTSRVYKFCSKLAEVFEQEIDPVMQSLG

[6] = molecular target: WDR9 second bromodomain, WDR9(2) (UniProt Q9NSI6); experiment: SPOT peptide array, His6-BRD overlay; settings: reference: H3K4acK9ac peptide; sites T3
EP300 bromodomain = EP300 bromodomain (UniProt Q09472); experiment: SPOT peptide array, His6-BRD overlay; settings: reference: H3K4acK9ac peptide; sites T3
[7] = molecular target: H3pS10K14acK18ac peptide (ITC) (human); experiment: ITC; VP-ITC or ITC200, 10 or 15°C, 50 mM HEPES pH 7.5, 150 mM NaCl; in most cases single binding site model
[8] = molecular target: H3K14ac peptide (ITC) (human); experiment: as above
[9] = molecular target: BRD3(1), first bromodomain of BRD3 (human) (UniProt Q15059); experiment: ITC; as a1; rows with N of about 0.5 or 0.25: two or more bromodomains on one peptide, apparent binding constants, events not deconvoluted
[10] = molecular target: BRD3(2), second bromodomain of BRD3 (human) (UniProt Q15059); experiment: as above
[11] = molecular target: SMARCA2 bromodomain (human) (UniProt P51531); experiment: ITC; peptide (mM stock) titrated into bromodomain (about 50 μM), by the concentrations in the tables; 10 or 15°C, 50 mM HEPES pH 7.5, 150 mM NaCl; single binding site model
PCAF bromodomain (human) = PCAF bromodomain (human) (UniProt Q92831); experiment: as above
[12] = molecular target: BAZ2B bromodomain (human) (UniProt Q9UIF8); experiment: as above
BAZ2B bromodomain (human), sequence (Q9UIF8 whole entry): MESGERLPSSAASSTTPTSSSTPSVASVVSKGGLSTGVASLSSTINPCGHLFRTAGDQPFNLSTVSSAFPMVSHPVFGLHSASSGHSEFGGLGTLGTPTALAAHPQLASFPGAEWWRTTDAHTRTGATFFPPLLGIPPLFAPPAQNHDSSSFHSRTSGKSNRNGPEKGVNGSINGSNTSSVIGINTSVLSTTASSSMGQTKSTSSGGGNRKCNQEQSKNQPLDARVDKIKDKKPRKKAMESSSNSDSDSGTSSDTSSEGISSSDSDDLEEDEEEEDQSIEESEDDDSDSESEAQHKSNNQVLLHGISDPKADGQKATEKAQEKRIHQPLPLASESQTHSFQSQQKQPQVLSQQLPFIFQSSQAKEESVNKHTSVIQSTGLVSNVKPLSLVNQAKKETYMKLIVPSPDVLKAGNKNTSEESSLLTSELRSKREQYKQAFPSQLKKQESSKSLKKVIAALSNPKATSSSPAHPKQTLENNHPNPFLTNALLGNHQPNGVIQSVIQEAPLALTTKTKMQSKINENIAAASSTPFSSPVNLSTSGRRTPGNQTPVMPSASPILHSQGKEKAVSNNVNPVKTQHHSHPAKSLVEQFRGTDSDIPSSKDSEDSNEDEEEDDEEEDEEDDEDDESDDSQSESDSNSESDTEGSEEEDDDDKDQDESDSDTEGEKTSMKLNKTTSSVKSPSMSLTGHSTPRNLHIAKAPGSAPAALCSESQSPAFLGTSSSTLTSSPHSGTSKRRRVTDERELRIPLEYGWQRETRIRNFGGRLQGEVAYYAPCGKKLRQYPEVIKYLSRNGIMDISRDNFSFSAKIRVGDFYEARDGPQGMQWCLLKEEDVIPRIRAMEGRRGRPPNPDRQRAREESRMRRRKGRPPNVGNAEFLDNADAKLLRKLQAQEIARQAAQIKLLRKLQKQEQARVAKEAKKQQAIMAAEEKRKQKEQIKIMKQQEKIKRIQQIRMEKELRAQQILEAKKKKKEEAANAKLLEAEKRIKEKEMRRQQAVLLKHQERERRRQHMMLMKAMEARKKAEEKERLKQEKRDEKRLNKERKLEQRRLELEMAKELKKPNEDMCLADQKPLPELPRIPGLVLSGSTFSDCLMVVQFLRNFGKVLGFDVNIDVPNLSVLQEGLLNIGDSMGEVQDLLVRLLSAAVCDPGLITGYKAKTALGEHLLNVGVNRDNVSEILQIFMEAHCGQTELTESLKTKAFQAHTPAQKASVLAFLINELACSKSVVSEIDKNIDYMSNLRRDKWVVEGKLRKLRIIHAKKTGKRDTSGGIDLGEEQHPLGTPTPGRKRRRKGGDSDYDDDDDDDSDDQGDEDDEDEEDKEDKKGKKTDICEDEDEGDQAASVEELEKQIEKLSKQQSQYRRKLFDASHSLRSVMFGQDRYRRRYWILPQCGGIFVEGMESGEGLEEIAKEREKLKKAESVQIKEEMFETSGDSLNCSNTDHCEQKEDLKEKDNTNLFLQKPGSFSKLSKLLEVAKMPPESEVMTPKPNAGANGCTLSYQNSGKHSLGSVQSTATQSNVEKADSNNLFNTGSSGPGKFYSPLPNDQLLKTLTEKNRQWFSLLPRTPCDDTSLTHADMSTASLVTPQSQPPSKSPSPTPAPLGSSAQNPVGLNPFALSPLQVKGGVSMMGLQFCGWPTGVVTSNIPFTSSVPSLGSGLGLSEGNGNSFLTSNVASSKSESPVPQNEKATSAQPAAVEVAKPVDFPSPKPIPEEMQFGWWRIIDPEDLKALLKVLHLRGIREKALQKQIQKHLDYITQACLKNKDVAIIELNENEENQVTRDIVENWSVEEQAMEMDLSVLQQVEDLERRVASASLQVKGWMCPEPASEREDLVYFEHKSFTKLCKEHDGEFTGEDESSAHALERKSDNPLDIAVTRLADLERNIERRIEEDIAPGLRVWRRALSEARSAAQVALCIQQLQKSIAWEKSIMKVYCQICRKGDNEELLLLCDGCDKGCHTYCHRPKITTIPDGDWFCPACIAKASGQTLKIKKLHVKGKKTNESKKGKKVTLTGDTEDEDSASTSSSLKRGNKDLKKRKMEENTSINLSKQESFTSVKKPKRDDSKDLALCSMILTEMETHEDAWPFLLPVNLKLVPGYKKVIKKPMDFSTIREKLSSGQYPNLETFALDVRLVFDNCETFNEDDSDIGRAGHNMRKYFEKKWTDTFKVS

[13] = molecular target: TAF1(2), second bromodomain of TAF1 (human) (UniProt P21675); experiment: as above
TAF1(2), second bromodomain of TAF1 (human), sequence (P21675 whole entry): as the sequence (P21675 whole entry) above

bromodomain of CREBBP, tag removed (ITC), sequence (Q92793 1081-1197): as the sequence (Q92793 1081-1197) above

Substance: H4K8 peptide RGKGGKacGLGKGY
- stoichiometry N [1]: 1
- pKd [2]: 3.68
- stoichiometry N [2]: 1

Substance: H3K9/S10/K14 peptide KQTARKacpSTGGKacAPRKQY
- pKd [3]: 3.82
- stoichiometry N [3]: 1.05

Substance: H3K9 peptide KQTARKacSTGGKY
- stoichiometry N [4]: 1

Substance: H3S10K14K18 peptide KpSTGGKacAPRKacQY
- stoichiometry N [5]: 1

Substance: histone H3 N-terminal tail (from UniProt P68431) H3 pT3K4acK9ac peptide
- binding against the reference [6]: gained
- binding against the reference (EP300 bromodomain): gained

Substance: H3K9/K14 peptide KQTARKacSTGGKacAPRKQY
- pKd [3]: 3.47
- stoichiometry N [3]: 1.02

Substance: bromodomain of CREBBP, tag removed (ITC) (from UniProt Q92793 1081-1197) (domain or fragment)
- pKd [7]: 3.88
- pKd [8]: 3.13

Substance: H4K12/16/20 peptide GKacGGAKacRHRKacV
- pKd [9]: 4.50
- stoichiometry N [9]: 0.51
- stoichiometry N [10]: 0.5

Substance: H3K14 peptide KSTGGKacAPRKQY
- stoichiometry N [11]: 1.05
- stoichiometry N (PCAF bromodomain (human)): 1.01
- pKd [3]: 3.75
- stoichiometry N [3]: 1.01
- pKd [12]: 5.12
- stoichiometry N [12]: 1
- pKd [13]: 3.51
- stoichiometry N [4]: 1
